Results published in US20260167699A1 (Chugai, published 2026).

B1: GpH7-A5/GpH7-B3 variant V266_02A/GpL16-k0 (antibody, human IgG1, kappa)
heavy 1: not shown
heavy 2: not shown
light: DIVMTQSPLSLPVTPGEPASISCQASESLVHSNRNTYLHWYLQKPGQSPQLLIYKVSNRFSGVPDRFSGSGSGTDFTLKISRVEAEDVGVYYCSQNTHVPPTFGQGTKVEIERTVAAPSVFIFPPSDEQLKSGTASVVCLLNNFYPREAKVQWKVDNALQSGNSQESVTEQDSKDSTYSLSSTLTLSKADYEKHKVYACEVTHQGLSSPVTKSFNRGEC
notes: He Ab; copies: 1 + 1 + 2
B2: GpH7-A5/GpH7-B3 variant V266_07I/GpL16-k0 (antibody, human IgG1, kappa)
heavy 1: not shown
heavy 2: not shown
light: DIVMTQSPLSLPVTPGEPASISCQASESLVHSNRNTYLHWYLQKPGQSPQLLIYKVSNRFSGVPDRFSGSGSGTDFTLKISRVEAEDVGVYYCSQNTHVPPTFGQGTKVEIERTVAAPSVFIFPPSDEQLKSGTASVVCLLNNFYPREAKVQWKVDNALQSGNSQESVTEQDSKDSTYSLSSTLTLSKADYEKHKVYACEVTHQGLSSPVTKSFNRGEC
notes: He Ab; copies: 1 + 1 + 2
B3: GpH7-A5/GpH7-B3 variant Y296_04F/GpL16-k0 (antibody, human IgG1, kappa)
heavy 1: not shown
heavy 2: not shown
light: DIVMTQSPLSLPVTPGEPASISCQASESLVHSNRNTYLHWYLQKPGQSPQLLIYKVSNRFSGVPDRFSGSGSGTDFTLKISRVEAEDVGVYYCSQNTHVPPTFGQGTKVEIERTVAAPSVFIFPPSDEQLKSGTASVVCLLNNFYPREAKVQWKVDNALQSGNSQESVTEQDSKDSTYSLSSTLTLSKADYEKHKVYACEVTHQGLSSPVTKSFNRGEC
notes: He Ab; copies: 1 + 1 + 2
B4: GpH7-A5/GpH7-B3 variant V266_08L/GpL16-k0 (antibody, human IgG1, kappa)
heavy 1: not shown
heavy 2: not shown
light: DIVMTQSPLSLPVTPGEPASISCQASESLVHSNRNTYLHWYLQKPGQSPQLLIYKVSNRFSGVPDRFSGSGSGTDFTLKISRVEAEDVGVYYCSQNTHVPPTFGQGTKVEIERTVAAPSVFIFPPSDEQLKSGTASVVCLLNNFYPREAKVQWKVDNALQSGNSQESVTEQDSKDSTYSLSSTLTLSKADYEKHKVYACEVTHQGLSSPVTKSFNRGEC
notes: He Ab; copies: 1 + 1 + 2
B5: GpH7-A5/GpH7-B3 variant Y296_06M/GpL16-k0 (antibody, human IgG1, kappa)
heavy 1: not shown
heavy 2: not shown
light: DIVMTQSPLSLPVTPGEPASISCQASESLVHSNRNTYLHWYLQKPGQSPQLLIYKVSNRFSGVPDRFSGSGSGTDFTLKISRVEAEDVGVYYCSQNTHVPPTFGQGTKVEIERTVAAPSVFIFPPSDEQLKSGTASVVCLLNNFYPREAKVQWKVDNALQSGNSQESVTEQDSKDSTYSLSSTLTLSKADYEKHKVYACEVTHQGLSSPVTKSFNRGEC
notes: He Ab; copies: 1 + 1 + 2
B6: GpH7-A5/GpH7-B3 variant V266_06M/GpL16-k0 (antibody, human IgG1, kappa)
heavy 1: not shown
heavy 2: not shown
light: DIVMTQSPLSLPVTPGEPASISCQASESLVHSNRNTYLHWYLQKPGQSPQLLIYKVSNRFSGVPDRFSGSGSGTDFTLKISRVEAEDVGVYYCSQNTHVPPTFGQGTKVEIERTVAAPSVFIFPPSDEQLKSGTASVVCLLNNFYPREAKVQWKVDNALQSGNSQESVTEQDSKDSTYSLSSTLTLSKADYEKHKVYACEVTHQGLSSPVTKSFNRGEC
notes: He Ab; copies: 1 + 1 + 2
B7: GpH7-A5/GpH7-B3 variant Y296_01G/GpL16-k0 (antibody, human IgG1, kappa)
heavy 1: not shown
heavy 2: not shown
light: DIVMTQSPLSLPVTPGEPASISCQASESLVHSNRNTYLHWYLQKPGQSPQLLIYKVSNRFSGVPDRFSGSGSGTDFTLKISRVEAEDVGVYYCSQNTHVPPTFGQGTKVEIERTVAAPSVFIFPPSDEQLKSGTASVVCLLNNFYPREAKVQWKVDNALQSGNSQESVTEQDSKDSTYSLSSTLTLSKADYEKHKVYACEVTHQGLSSPVTKSFNRGEC
notes: He Ab; copies: 1 + 1 + 2
B8: GpH7-A5/GpH7-B3 variant Y296_02A/GpL16-k0 (antibody, human IgG1, kappa)
heavy 1: not shown
heavy 2: not shown
light: DIVMTQSPLSLPVTPGEPASISCQASESLVHSNRNTYLHWYLQKPGQSPQLLIYKVSNRFSGVPDRFSGSGSGTDFTLKISRVEAEDVGVYYCSQNTHVPPTFGQGTKVEIERTVAAPSVFIFPPSDEQLKSGTASVVCLLNNFYPREAKVQWKVDNALQSGNSQESVTEQDSKDSTYSLSSTLTLSKADYEKHKVYACEVTHQGLSSPVTKSFNRGEC
notes: He Ab; copies: 1 + 1 + 2
B9: GpH7-A5/GpH7-B3 variant Y296_03V/GpL16-k0 (antibody, human IgG1, kappa)
heavy 1: not shown
heavy 2: not shown
light: DIVMTQSPLSLPVTPGEPASISCQASESLVHSNRNTYLHWYLQKPGQSPQLLIYKVSNRFSGVPDRFSGSGSGTDFTLKISRVEAEDVGVYYCSQNTHVPPTFGQGTKVEIERTVAAPSVFIFPPSDEQLKSGTASVVCLLNNFYPREAKVQWKVDNALQSGNSQESVTEQDSKDSTYSLSSTLTLSKADYEKHKVYACEVTHQGLSSPVTKSFNRGEC
notes: He Ab; copies: 1 + 1 + 2

These binders were tested against T1, FcγRIIIa extracellular domain, C-terminal His tag (human, UniProt P08637 17-208) (assay: SPR, binding activity relative to GpH7-A5/GpH7-B3/GpL16-k0 (=100)).
T1 construct: extracellular domain; also called 3a
T1 sequence (P08637 other isoform, or with tags, fused parts or gaps): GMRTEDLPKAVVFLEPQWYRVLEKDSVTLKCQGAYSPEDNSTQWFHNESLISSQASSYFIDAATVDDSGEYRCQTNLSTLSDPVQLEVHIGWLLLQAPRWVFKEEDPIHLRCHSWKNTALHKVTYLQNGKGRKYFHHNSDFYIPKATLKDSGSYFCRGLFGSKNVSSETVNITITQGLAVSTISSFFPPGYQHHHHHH

| Binder | He/Con 3a [%] |
| --- | --- |
| B1 | 56.8 |
| B2 | 113 |
| B3 | 79.5 |
| B4 | 117 |
| B5 | 74.6 |
| B6 | 84.9 |
| B7 | 51.3 |
| B8 | 66.3 |
| B9 | 69.1 |
